As a reminder, the EC50 is the concentration at which the effect is half-maximal. Read a low EC50 as higher potency in that assay.

The target of test [1] is cynomolgus CD84 (NCBI Accession No. XM_005541244.3), on HEK293T cells (cynomolgus). Description: flow cytometry on HEK293T-Cyno-CD84 cells. (A flow cytometer gives signals particle by particle.)
Test [2] deals with human CD84 (NCBI Accession No. NP_001171808.1), on cells (human) (UniProt Q9UIB8). Description: flow cytometry on HEK293T-hCD84 cells.
UniProt Q9UIB8, sequence (Q9UIB8 22-345): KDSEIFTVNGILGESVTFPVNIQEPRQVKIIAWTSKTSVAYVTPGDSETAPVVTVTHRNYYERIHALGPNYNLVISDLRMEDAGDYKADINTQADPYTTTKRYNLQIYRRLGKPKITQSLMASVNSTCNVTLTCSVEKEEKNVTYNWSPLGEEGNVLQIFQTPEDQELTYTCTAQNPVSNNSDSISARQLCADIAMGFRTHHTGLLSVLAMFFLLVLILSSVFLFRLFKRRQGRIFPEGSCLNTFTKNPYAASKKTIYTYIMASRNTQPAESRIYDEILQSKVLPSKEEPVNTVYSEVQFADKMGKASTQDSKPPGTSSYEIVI

For “CD84.1.21 (Biolegend; Cat. No. 326002) (antibody)”, the EC50 amounted to 16.6 nM in test [1] and 2.09 nM in test [2]. Also, the MFI (max) in test [1] is 57700 MFI; in test [2], 134000 MFI.

These data come from EP4818206A1.
